Columns and labels:
[1] = molecular target: T1, h-γ appendage (residues 704–822), 6xHis (human, UniProt O43747 704-822); experiment: ITC
T1 sequence (looked up): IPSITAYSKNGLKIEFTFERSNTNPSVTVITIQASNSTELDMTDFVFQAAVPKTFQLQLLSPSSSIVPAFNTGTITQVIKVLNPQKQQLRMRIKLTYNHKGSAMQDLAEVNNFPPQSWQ

[2] = molecular target: T2, h-β2 appendage (residues 700–937), 6xHis (human, UniProt P63010 700-937); experiment: ITC
T2 sequence (looked up): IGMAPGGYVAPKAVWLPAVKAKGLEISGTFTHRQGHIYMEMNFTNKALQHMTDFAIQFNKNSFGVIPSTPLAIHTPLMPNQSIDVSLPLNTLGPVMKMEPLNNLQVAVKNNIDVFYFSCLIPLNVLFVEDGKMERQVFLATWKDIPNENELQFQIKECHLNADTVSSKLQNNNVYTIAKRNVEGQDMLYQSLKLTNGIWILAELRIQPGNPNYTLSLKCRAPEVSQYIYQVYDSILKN

B1: epsinR N3 construct (291–426), GST cleaved (domain or fragment, human, UniProt Q14677 291-426, looked up)
chain: AHYTGDKASPDQNASTHTPQSSVKTSVPSSKSSGDLVDLFDGTSQSTGGSADLFGGFADFGSAAASGSFPSQVTATSGNGDFGDWSAFNQAPSGPVASSGEFFGSASQPAVELVSGSQSALGPPPAASNSSDLFDL
stoichiometry N [1]: 2 appendage domains per epsinR N3
stoichiometry N [2]: 2 appendage domains per epsinR N3
